Ten molecules from patent US20250179196A1 (Janssen / Centocor, published 2025) can be followed below.

Test [1] concerns the target T1, rat IL-23R extracellular domain (ECD) protein (rat).
T1 construct: also called rat IL-23R ECD; F1LX96 amino acids 24-354
T1 chain: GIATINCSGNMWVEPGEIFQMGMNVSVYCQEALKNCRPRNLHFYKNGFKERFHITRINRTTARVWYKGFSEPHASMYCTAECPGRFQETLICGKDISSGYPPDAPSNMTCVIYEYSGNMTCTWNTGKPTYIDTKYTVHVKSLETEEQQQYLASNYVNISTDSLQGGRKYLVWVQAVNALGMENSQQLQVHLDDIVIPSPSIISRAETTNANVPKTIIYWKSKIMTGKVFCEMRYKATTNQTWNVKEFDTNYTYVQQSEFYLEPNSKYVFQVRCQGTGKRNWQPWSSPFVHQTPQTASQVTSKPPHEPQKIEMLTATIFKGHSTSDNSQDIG
Kind of test: SPR Biacore 8K, supernatant. The procedure, abridged:
(§1)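 Kinetics fitted to a 1:1 Langmuir model gave on-rate, off-rate and KD. Human or rat IL-23R ECD flowed over captured mAbs (~150 RU) at 0.8–500 nM, 5-fold dilutions: 3 min binding at 50 μL/min, then 30 min buffer, 25 °C, HBS-P+ plus 100 μg/ml BSA.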

For test [2], the target named is T2, Recombinant human IL-23 receptor (IL-23R) extracellular domain (ECD) protein (human, UniProt Q5VWK5 24-355).
T2 construct: also called human IL-23R ECD; hu IL-23R ECD
T2 sequence: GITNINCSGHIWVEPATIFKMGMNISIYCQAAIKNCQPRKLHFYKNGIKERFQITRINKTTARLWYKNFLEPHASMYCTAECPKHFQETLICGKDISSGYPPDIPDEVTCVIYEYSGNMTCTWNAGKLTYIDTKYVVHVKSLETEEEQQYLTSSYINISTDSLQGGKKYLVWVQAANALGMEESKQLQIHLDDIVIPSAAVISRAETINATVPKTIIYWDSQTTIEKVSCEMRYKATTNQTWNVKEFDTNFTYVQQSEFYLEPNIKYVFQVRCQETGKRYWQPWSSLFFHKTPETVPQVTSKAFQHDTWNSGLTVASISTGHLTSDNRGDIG
Kind of test: SPR Biacore 8K, supernatant, analysis 1. Put shortly: as §1

The target of test [3] is T2, Recombinant human IL-23 receptor …. Kind of test: SPR Biacore 8K, supernatant, analysis 2. The procedure, abridged: as §1
For test [4] the target is unchanged. Kind of test: SPR Biacore 8K, purified, analysis 1. As for the experimental part: (§2) Affinity by SPR using Biacore 8K. Affinity measurements using Surface Plasmon Resonance (SPR) were performed using a Biacore 8K system (Cytiva). […] Approximately 9000-10000 RU (response units) of mAbs were immobilized. The kinetic experiments were performed at 25° C. in running buffer 1× of (HBS-P+ Buffer 10× (Cytiva #BR100671)+100 μg/ml BSA). To perform kinetic experiments, approximately 150 RU of mAbs were captured followed by injections of human IL-23R or rat IL-23R at concentrations ranging from 0.8 nM to 500 nM (in a 5-fold serial dilution). The association phase was monitored for 3 minutes at 50 μL/min, then followed by 30 minutes of buffer flow (dissociation phase). […] The collected data were processed using Biacore insight Evaluation software (Version 3.0.12.15655). The kinetic analysis of the data was performed using a Langmuir 1:1 binding model. The result for each mAb was reported in the format of Ka (On-rate), Kd (Off-rate) and KD (equilibrium dissociation constant).

For test [5] the target is unchanged. Kind of test: SPR Biacore 8K, purified, analysis 2. On the procedure: as §2

Where only a bound is given, the exact number is not on record here.

B1: I23RB144 (antibody, mouse IgG2a, kappa, V domains shown)
VH: EVQLQQSGPELVKPGASVKMSCKASGYTFTSYIIHWVKQKPGQGLEWIGYIDPYNDDTKYNEKFKGKATLTSDKSSSTAYMEFSSLTSEDSAVYYCARLGSINYYDGSYFDYWGQGTSVTVSS
VL: DIVMTQSPLTLSVIIGQSASISCKSSQSLLDSDGKTYLNWLLQRPGQSPKRLMYLVSKLDSGVPDRFTGSGSGTDFTLKISRVEAEDLGVYYCWQGIHFPLTFGSGTRLEIKR
notes: mouse immunization; mouse IgG2a/kappa
As to B1, the binding result in test [1] was “no binding (tested: 500 nM)”. Also, in test [2], the Kd came out at 30.6 nM, the koff came to 0.00272 s⁻¹ and the kon was found to be 89000 M⁻¹ s⁻¹. Further, in test [3], the Kd turned out to be 53.3 nM, the koff is 0.00277 s⁻¹ and the kon stood at 52000 M⁻¹ s⁻¹.

B2: I23RB155 (antibody, mouse IgG2a, kappa, V domains shown)
VH: QVQLKESGPGLVKPSQSLSLTCSVTGYSITSGHSWNWIRQFPGNKLEWMGYISYDGTNDYNPSLKNRISITRDTSKNQFFLNLNSVTTEDTVTYYCARGGGYYGGTYRVFADWGQGTTLTVSS
VL: QIVLSQSPASLAVSLGQRATISCRTSESVDTYGNSFIYWYQQKPGQPPKLLIYRASNLESGIPARFSGSGSRTDFTLTINPVEADDVATYYCQQGNKDPYTFGSGTKLEMKR
notes: as for B1
Take B2: in test [1], the binding result is given as “no binding (tested: 500 nM)”. Moreover, in test [2], the Kd was below 0.0784 nM, the koff is below 2.89e-05 s⁻¹ and the kon is 369000 M⁻¹ s⁻¹. Also, in test [3], the Kd was below 0.121 nM, the koff is below 2.89e-05 s⁻¹ and the kon is 239000 M⁻¹ s⁻¹.

B3: I23RB42 (antibody, mouse IgG2a, kappa, V domains shown)
VH: EVQLQQSGAELVKPGASVKISCKASGYSFTDYIMNWVKQSHGKSLEWIGNINPYFGFTSYNQEFKGKATLTVDKSSSTAYMLLNSLTSEDSAVYYCSRGSYYGYETFFDYWGQGTTLTVSS
VL: DIVLTQTAPSVPVTPGESVSISCRSSKSLLHSNGNTYLYWFLQRPGQSPQLLIYRMSNLASGVPDRFSGSGSGTAFTLRISRVEAEDVGVYYCMQHLEYPYTFGSGTRLEIKR
notes: as for B1
For the molecule B3, in test [4], the equilibrium dissociation constant (Kd) turned out to be 0.0725 nM, the koff worked out at 5.76e-05 s⁻¹ and the on-rate constant (kon) amounted to 795000 M⁻¹ s⁻¹. Further, in test [3], the Kd came to 0.108 nM, the dissociation rate constant (koff) is 6.29e-05 s⁻¹ and the kon stood at 582000 M⁻¹ s⁻¹. In test [5], the Kd is 0.117 nM, the koff is 6.25e-05 s⁻¹ and the on-rate (kon) is 535000 M⁻¹ s⁻¹.

B4: I23RB160 (antibody, mouse IgG2a, kappa, V domains shown)
VH: QVQLKESGPDLVKPSQSLSLTCTVTGYSITSGYNWHWIRQFPGNKLEWMGYIHYSSGTIYNPSLKSRISITRDTSKNQFFLQLNSVTTEDTGTYYCARQLGLKAMDYWGQGTSVTVSS
VL: DIVMTQSHKFMSTSVGDRVSITCKASQDVRTAVAWYQQKPGQSPKLLIHSASYRYTGVPDRFTGSGSGTDFTFTISSVQVEDLAVYYCQQHYTTPYTFGSGTKLEIKR
notes: as for B1
As for B4, the binding result in test [1] is on record as “no binding (tested: 500 nM)”. For the same molecule, in test [2], the Kd came to 16.9 nM, the off-rate (koff) was found to be 0.00955 s⁻¹ and the kon is 567000 M⁻¹ s⁻¹. In addition, in test [3], the dissociation constant Kd turned out to be 13.8 nM, the off-rate (koff) was 0.0142 s⁻¹ and the on-rate (kon) worked out at 1.02e+06 M⁻¹ s⁻¹.

B5: I23RB150 (antibody, mouse IgG2a, kappa, V domains shown)
VH: QIQLVQSGPELKKPGETVKISCKASAYTFTNYGMNWVKQAPGKGLKWMGWIKTNTGEPTYAEEFKGRFAFSLETSASTAYLQINNLKNEDTATYFCARSRQLGLRYYFDYWGQGTTLTVSS
VL: DIVMTQSHKFMSTSVGGRVSITCKASQDVSTAVAWYQQKPGQSPRLLIYSASYRYTGVPDRFTGSGSGTDFTFTISSVQAEDLAVFYCQQHYSTPYTFGSGTRLEIKR
notes: as for B1
For B5, the binding result in test [1] is reported as “no binding (tested: 500 nM)”. Besides, in test [2], the dissociation constant (Kd) was 96.5 nM, the koff was determined as 0.0329 s⁻¹ and the kon is 341000 M⁻¹ s⁻¹. Besides, in test [3], the Kd worked out at 112 nM, the koff is 0.0376 s⁻¹ and the on-rate constant (kon) came out at 334000 M⁻¹ s⁻¹.

B6: I23RB148 (antibody, mouse IgG2a, kappa, V domains shown)
VH: DVQLQESGPDLVKPSQSLSLTCTVTGYSITSGYNWHWIRQFPGNKLEWMGYIHSSGTTNYSPSLRSRLSITRDTSKNQFFLQLNSVTTEDTATYYCTRQLGLKAMEYWGQGTTLTVSS
VL: DIVMTQSHKFMSTSVGDRVSLTCKASQEVRTAVAWYQQKPGQPPKLLIYSASYRYTGVPDRFTGSGSGTDFTFTIISVQAEDLAVYYCQQHYTTPYSFGSGTKLEIKR
notes: as for B1
For B6, in test [1], the binding result is on record as “no binding (tested: 500 nM)”. For the same molecule, in test [2], the dissociation constant (Kd) worked out at 0.874 nM, the koff was determined as 0.000459 s⁻¹ and the on-rate constant (kon) is 525000 M⁻¹ s⁻¹. Also, in test [3], the Kd was found to be 0.766 nM, the off-rate constant (koff) is 0.000382 s⁻¹ and the kon stood at 498000 M⁻¹ s⁻¹.

B7: I23RB162 (antibody, mouse IgG2a, kappa, V domains shown)
VH: EFQLQQSGPELVKPGASVKMSCKASGYTFTNYVMHWVKQKPGQGLEWIGYINPYNDGTKYNEKFKGKATLTSDKSSSTAYMELSSLTSEDSAVYYCARSRTGTRWYFDVWGAGTTVTVSS
VL: DIVMTQSQKFMSTSVGDRVSVTCKASQNVGTNVAWYQQKPGQSPKALIYSASYRYSGVPDRFTGSGSGTDFTLTISNVQSEDLAEYFCQQYNSYPFTFGSGTKLEIKR
notes: as for B1
Take B7: the binding result in test [1] is given as “no binding (tested: 500 nM)”. Besides, in test [2], the equilibrium dissociation constant (Kd) came out at 44.6 nM, the koff is 0.0237 s⁻¹ and the kon was found to be 531000 M⁻¹ s⁻¹. Besides, in test [3], the dissociation constant Kd came out at 62.2 nM, the dissociation rate constant (koff) was 0.0216 s⁻¹ and the association rate constant (kon) was determined as 347000 M⁻¹ s⁻¹.

B8: I23RB65 (antibody, mouse IgG2a, kappa, V domains shown)
VH: EVQLQQSGPELVKPGASVKISCKASGYTFTDHTMDWVKQSHGKSLEWIGYIYPKSGNAAYSQKFKSEATLTVDKSSSTAYMEFHSLTSEDSAVYYCARWGLRRDGFTYWGQGTSVTVSS
VL: QIVLTQSPASLAVSLGQRATISCRASQSVSTSSYNYIHWYQQKPGQPPKLLIKYASNLESGVPARFSGSGSGTDFTLNIHPVEEDDTATYYCQHTWEIPYTFGSGTKLEIKR
notes: as for B1
Turning to B8, the binding result in test [1] is on record as “no binding (tested: 500 nM)”. The equilibrium dissociation constant (Kd) in test [4] is below 0.0597 nM; in test [3], 0.11 nM; in test [5] it was below 0.0723 nM. The koff in test [4] was below 2.89e-05 s⁻¹; in test [3], 4.58e-05 s⁻¹; in test [5], below 2.89e-05 s⁻¹. In addition, the on-rate (kon) in test [4] was 484000 M⁻¹ s⁻¹; in test [3], 416000 M⁻¹ s⁻¹; in test [5], 400000 M⁻¹ s⁻¹.

B9: I23RB156 (antibody, mouse IgG2a, kappa, V domains shown)
VH: QVQLKESGPGLVAPSQSLSITCTVSGFSLTSYAINWVRQPPGKGLEWLGVIWTGGGTNYNSVFKSRLSISKDNSKSQIFLKMISLQTDDTARYYCARNRDYSNYRWYFDVWGAGTTLTVSS
VL: DIVMTQSHKFMSTSVGDRVSITCKASQDVSTAVAWYQQKPGRSPKLLIYSAFYRYTGVPDRFTGSGSGTDFTFTIGSVQAEDLAVYYCQQHYSIPLTFGAGTKLELKR
notes: as for B1
Regarding B9, the binding result in test [1] is “no binding (tested: 500 nM)”. Moreover, in test [2], the equilibrium dissociation constant (Kd) is 0.403 nM, the koff came out at 0.000218 s⁻¹ and the kon is 542000 M⁻¹ s⁻¹. In test [3], the dissociation constant Kd is 0.588 nM, the dissociation rate constant (koff) stood at 0.000259 s⁻¹ and the kon amounted to 441000 M⁻¹ s⁻¹.

B10: I23RB153 (antibody, mouse IgG2a, kappa, V domains shown)
VH: EVKLVESGGGLVQPGGSLKLSCAASGFTFSSDTMSWVRQTPEKRLELVAEISSNGGSTYHIDTVKGRFTISRDNAKNTLYLQMSSLKSEDTAMYYCASPGYPWFAYWGQGTTVTVSA
VL: DIVMTQSHRFMSTSVGERVSITCKASQDVGNAVAWYQQKPGQSPKLLIYWTSTRHNGVPDRFTGSGSGTDFTLTISNVQGEDLADYFCQQYNRYPLTFGSGTKLEIKR
notes: as for B1
In test [1], B10 displayed an equilibrium dissociation constant (Kd) of 92.1 nM, a koff of 0.00548 s⁻¹ and a kon of 59500 M⁻¹ s⁻¹. In test [2], the dissociation constant (Kd) is 1.64 nM, the dissociation rate constant (koff) came to 0.000226 s⁻¹ and the on-rate (kon) amounted to 138000 M⁻¹ s⁻¹. Further, in test [3], the Kd came to 2.33 nM, the off-rate (koff) worked out at 0.000318 s⁻¹ and the kon was 137000 M⁻¹ s⁻¹.
